Reference: publication PMC5302818

What was measured:
BIR1-CFP (Arabidopsis) = experiment: cross number and brightness (Cross N&B) fluorescence fluctuation analysis; leaf disks of N. benthamiana transiently expressing AtRGS1-YFP with BIR1-CFP or BAK1-CFP; time series of 100 confocal images; SimFCS analysis
[1] = molecular target: T1, BAK1-CFP (Arabidopsis), Q94F62; experiment: as above; details: remark: other sources report otherwise
T1 chain: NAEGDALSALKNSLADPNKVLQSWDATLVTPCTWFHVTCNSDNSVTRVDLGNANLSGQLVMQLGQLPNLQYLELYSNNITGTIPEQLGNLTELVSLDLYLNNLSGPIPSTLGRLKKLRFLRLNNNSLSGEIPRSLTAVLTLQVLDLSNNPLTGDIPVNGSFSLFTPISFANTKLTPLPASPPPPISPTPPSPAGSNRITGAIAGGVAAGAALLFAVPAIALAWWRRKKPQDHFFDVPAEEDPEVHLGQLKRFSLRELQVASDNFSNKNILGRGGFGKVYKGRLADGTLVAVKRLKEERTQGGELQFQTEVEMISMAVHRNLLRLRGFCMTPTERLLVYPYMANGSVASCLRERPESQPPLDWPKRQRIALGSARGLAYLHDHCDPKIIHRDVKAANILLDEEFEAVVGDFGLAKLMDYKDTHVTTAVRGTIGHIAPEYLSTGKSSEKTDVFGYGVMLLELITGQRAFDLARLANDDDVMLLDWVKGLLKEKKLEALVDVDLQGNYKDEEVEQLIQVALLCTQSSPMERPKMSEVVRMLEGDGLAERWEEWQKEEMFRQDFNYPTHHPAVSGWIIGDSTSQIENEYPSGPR

B1: AtRGS1-YFP (natural protein)
chain: MASGCALHGGCPSDYVAVAISVICFFVLLSRSVLPCLIHKAPRTNSSSFWIPVIQVISSFNLLFSIMMSVNLLRFRTKHWWRYCYLWAVWIEGPLGFGLLMSCRITQAFQLYFIFVKKRLPPVKSYIFLPLVLLPWIFGAAIIHATKPLNDKCHMGLQWTFPVAGLHALYVLALIAFTRAVRHVEFRFDELRDLWKGILVSATSIVIWVTAFVLNEIHEEISWLQVASRFVLLVTGGILVVVFFSISSNQPLLSQISLKKRQNFEFQRMGQALGIPDSGLLFRKEEFRPVDPNEPLDKLLLNKRFRHSFMEFADSCYAGETLHFFEEVYEHGKIPEDDSIRRIYMARHIMEKFIVAGAEMELNLSHKTRQEILTTQDLTHTDLFKNALNEVMQLIKMNLVRDYWSSIYFIKFKEEESCHEAMHKEGYSFSSPRLSSVQGSDDPFYQEHMSKSSRCSSPG
- stoichiometry N (BIR1-CFP (Arabidopsis)): 1

B2: AtRGS1-YFP, Q8H1F2 1-459 (natural protein)
chain: MASGCALHGGCPSDYVAVAISVICFFVLLSRSVLPCLIHKAPRTNSSSFWIPVIQVISSFNLLFSIMMSVNLLRFRTKHWWRYCYLWAVWIEGPLGFGLLMSCRITQAFQLYFIFVKKRLPPVKSYIFLPLVLLPWIFGAAIIHATKPLNDKCHMGLQWTFPVAGLHALYVLALIAFTRAVRHVEFRFDELRDLWKGILVSATSIVIWVTAFVLNEIHEEISWLQVASRFVLLVTGGILVVVFFSISSNQPLLSQISLKKRQNFEFQRMGQALGIPDSGLLFRKEEFRPVDPNEPLDKLLLNKRFRHSFMEFADSCYAGETLHFFEEVYEHGKIPEDDSIRRIYMARHIMEKFIVAGAEMELNLSHKTRQEILTTQDLTHTDLFKNALNEVMQLIKMNLVRDYWSSIYFIKFKEEESCHEAMHKEGYSFSSPRLSSVQGSDDPFYQEHMSKSSRCSSPG
- stoichiometry N [1]: 1
